The results in this text go back to patent US20220195407, “OPTIMIZATION OF ENGINEERED MEGANUCLEASES FOR RECOGNITION SEQUENCES” (Precision BioSciences, Inc., published 2022).

Substitutions are numbered along the chain they refer to.

Common to all, as to assay: cell_activity; CHO iGFFP reporter
One series addresses T1, LOX 3-4m.2248 (artificial (I-CreI derived)).
T1 chain: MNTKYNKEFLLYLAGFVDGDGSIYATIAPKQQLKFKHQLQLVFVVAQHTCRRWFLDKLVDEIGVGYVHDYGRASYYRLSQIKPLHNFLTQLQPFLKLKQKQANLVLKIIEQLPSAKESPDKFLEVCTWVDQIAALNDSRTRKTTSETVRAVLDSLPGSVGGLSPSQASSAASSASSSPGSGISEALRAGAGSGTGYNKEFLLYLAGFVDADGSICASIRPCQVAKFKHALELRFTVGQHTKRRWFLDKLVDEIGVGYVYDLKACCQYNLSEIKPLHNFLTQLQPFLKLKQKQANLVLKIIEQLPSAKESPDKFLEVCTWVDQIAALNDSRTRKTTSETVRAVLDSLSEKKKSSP
The text has this:
(§1) A CHO cell reporter system (see WO/2012/167192, FIG. 3) was used to determine whether the engineered meganucleases generated in these studies could recognize and cleave the modified LOX 3-4 recognition sequences in Table 87. To perform the assay, a pair of CHO cell reporter lines were produced, which carried a non-functional Green Fluorescent Protein (GFP) gene expression cassette integrated into the genome of the cell. The GFP gene in each cell line was interrupted by a pair of recognition sequences such that intracellular cleavage of either recognition sequence by a meganuclease would stimulate a homologous recombination event resulting in a functional GFP gene. In both cell lines, one of the recognition sequences was derived from the LOX 3-4 recognition sequence (i.e., those sequences disclosed in Table 87), and the second recognition sequence was specifically recognized by a control meganuclease called “CHO 23/24.” CHO reporter cells comprising a recognition sequence derived from the LOX 3-4 recognition sequence and the CHO 23/24 recognition sequence are referred to herein as “test cells.”
(§2) Novel engineered meganucleases derived from the LOX 3-4x.109 meganuclease were prepared by making amino acid substitutions at one or more positions in the first subunit and one or more positions in the second subunit. These engineered meganucleases were then evaluated for cleavage of the LOX 3-4 recognition sequence modified to have an ATAT center sequence (SEQ ID NO: 200) in the CHO reporter assay according to Example 1.

Another series concerns the target T2, LOX 3-4m.2330 (artificial (I-CreI derived)).
T2 chain: T1 chain with G19A, H48K, C50K, Q80E, A210G, H239A, K241R, K262R, A263N, E271Q
Description: as §1, §2

Another series addresses T3, LOX 3-4m.2329 (artificial (I-CreI derived)).
T3 chain: T1 chain with G19A, H48T, C50R, A210G, H239T, K241N, K262G, A263G, E271Q
Description: as §1, §2

Another series deals with T4, LOX 3-4m.2313 (artificial (I-CreI derived)).
T4 chain: T1 chain with G19A, H48A, C50K, A210G, H239A, K262G, A263K, C265A, E271Q, R330P
Description: as §1, §2

A further series has as its target T5, LOX 3-4m.1789 (artificial (I-CreI derived)).
T5 chain: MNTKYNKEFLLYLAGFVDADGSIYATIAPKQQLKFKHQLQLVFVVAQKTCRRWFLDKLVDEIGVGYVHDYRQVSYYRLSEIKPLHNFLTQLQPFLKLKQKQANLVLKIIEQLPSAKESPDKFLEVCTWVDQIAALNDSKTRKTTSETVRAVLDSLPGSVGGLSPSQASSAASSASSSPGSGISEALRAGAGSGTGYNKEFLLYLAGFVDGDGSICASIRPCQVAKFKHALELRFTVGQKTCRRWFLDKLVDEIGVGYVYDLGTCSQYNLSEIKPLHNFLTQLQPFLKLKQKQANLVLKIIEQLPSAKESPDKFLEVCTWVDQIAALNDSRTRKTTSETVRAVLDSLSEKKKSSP
Description: as §1
(§3) Novel engineered meganucleases derived from the LOX 3-4x.109 meganuclease were prepared by making amino acid substitutions at one or more positions in the first subunit and one or more positions in the second subunit. These engineered meganucleases were then evaluated for cleavage of the LOX 3-4 recognition sequence modified to have a GCAA center sequence (SEQ ID NO: 267) in the CHO reporter assay according to Example 1.

For the next series, the target named is T6, LOX 3-4m.1854 (artificial (I-CreI derived)).
T6 chain: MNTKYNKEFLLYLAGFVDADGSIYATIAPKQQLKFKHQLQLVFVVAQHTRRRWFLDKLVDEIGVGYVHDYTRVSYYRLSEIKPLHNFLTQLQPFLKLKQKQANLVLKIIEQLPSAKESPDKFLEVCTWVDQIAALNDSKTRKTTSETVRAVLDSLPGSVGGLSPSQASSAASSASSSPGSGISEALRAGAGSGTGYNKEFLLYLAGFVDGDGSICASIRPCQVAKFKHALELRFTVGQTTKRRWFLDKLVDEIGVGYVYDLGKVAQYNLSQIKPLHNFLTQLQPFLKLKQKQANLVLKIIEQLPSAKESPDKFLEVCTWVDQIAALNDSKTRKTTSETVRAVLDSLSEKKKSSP
Description: as §1, §3

The target of another series is T7, LOX 3-4m.1875 (artificial (I-CreI derived)).
T7 chain: T5 chain with A19G, C50R, Q72G, E80Q, G210A, G262H, T263K, C264I, S265A
Description: as §1, §3

Another series concerns the target T8, LOX 3-4m.1868 (artificial (I-CreI derived)).
T8 chain: T5 chain with C50R, R71G, Q72P, V73T, E80Q, T263R, C264I, S265A
Description: as §1, §3

In another series the target is T9, LOX 3-4m.1486 (artificial (I-CreI derived)).
T9 chain: T5 chain with C50T, R71G, Q72T, V73A, K139R, C241S, T263R, C264I
Description: as §1
(§4) Novel engineered meganucleases derived from the LOX 3-4x.109 meganuclease were prepared by making amino acid substitutions at one or more positions in the first subunit and one or more positions in the second subunit. These engineered meganucleases were then evaluated for cleavage of the LOX 3-4 recognition sequence modified to have an ATGA center sequence (SEQ ID NO: 220) in the CHO reporter assay according to Example 1.

The next series has as its target T10, LOX 3-4m.1421 (artificial (I-CreI derived)).
T10 chain: T6 chain with H48K, R50T, T71G, V73A, E80Q, T239R, K241I, V250A, K263H, V264I
Description: as §1, §4

The next series addresses T11, LOX 3-4m.1500 (artificial (I-CreI derived)).
T11 chain: T6 chain with H48K, T71G, R72S, V73S, E80Q, K139R, T239S, K241R, K263H, A265S
Description: as §1, §4

The next series concerns the target T12, LOX 3-4m.1506 (artificial (I-CreI derived)).
T12 chain: T5 chain with C50T, R71G, Q72K, V73A, K139R, S180P, C241I, V250A, T263R, C264I
Description: as §1, §4

B1: LOX 3-4 ATAT (dsDNA)
DNA 1: GTATAGCATATATTATACGAAG
DNA 2: CTTCGTATAATATATGCTATAC
Turning to B1, the activity was 13.8 % GFP in the series with LOX 3-4m.2248, 13.9 % GFP in the series with LOX 3-4m.2330, 14.9 % GFP with LOX 3-4m.2329 and 13.1 % GFP in the series with LOX 3-4m.2313.

B2: LOX 3-4 GCAA (dsDNA)
DNA 1: GTATAGCATGCAATATACGAAG
DNA 2: CTTCGTATATTGCATGCTATAC
For B2, the activity with LOX 3-4m.1789 is 8.9 % GFP; with LOX 3-4m.1854 it was 7.67 % GFP; with LOX 3-4m.1875 it was 8.14 % GFP; in the series with LOX 3-4m.1868, 7.56 % GFP.

B3: LOX 3-4 ATGA (dsDNA)
DNA 1: GTATAGCATATGATATACGAAG
DNA 2: CTTCGTATATCATATGCTATAC
In the case of B3, the activity was determined as 9.23 % GFP with LOX 3-4m.1486, 8.37 % GFP with LOX 3-4m.1421, 3.6 % GFP with LOX 3-4m.1500 and 8.2 % GFP with LOX 3-4m.1506.
